Laboratory results as given in patent publication US20240376204A1 (JIANGSU HENGRUI PHARMACEUTICALS, published 2024).
Where two headings read alike, the source gives them in different places.

Columns and labels:
[1] = biological target: T1, human TIGIT expressed on cells (human, UniProt Q495A1 22-244); assay: FACS by the method of Example 2-2 with human TIGIT; numbers not given
T1 construct: whole, on cells; also called cells overexpressing human TIGIT; CHO-K1 cell strain expressing the human TIGIT gene
T1 sequence (looked up): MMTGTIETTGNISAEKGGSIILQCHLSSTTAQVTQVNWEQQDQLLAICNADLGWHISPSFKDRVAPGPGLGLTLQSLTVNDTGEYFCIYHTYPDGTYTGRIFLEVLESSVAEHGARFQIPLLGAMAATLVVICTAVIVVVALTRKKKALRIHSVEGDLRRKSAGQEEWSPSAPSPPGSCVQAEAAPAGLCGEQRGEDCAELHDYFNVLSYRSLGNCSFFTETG

[2] = biological target: T2, human TIGIT recombinant protein (human, UniProt Q495A1 22-141); assay: ELISA by the method of Example 2-2 with human TIGIT; numbers not given
T2 construct: also called human TIGIT antigen (AcroBiosystem, TIT-H52H3); TIGIT protein
T2 sequence (looked up): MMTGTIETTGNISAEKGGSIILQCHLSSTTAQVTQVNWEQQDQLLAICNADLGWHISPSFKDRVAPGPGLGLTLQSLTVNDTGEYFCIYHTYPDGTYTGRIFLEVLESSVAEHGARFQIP

[3] = biological target: T3, human PVRIG expressed on cells (human, UniProt Q6DKI7 41-326); assay: cell-based or functional assay
T3 sequence (looked up): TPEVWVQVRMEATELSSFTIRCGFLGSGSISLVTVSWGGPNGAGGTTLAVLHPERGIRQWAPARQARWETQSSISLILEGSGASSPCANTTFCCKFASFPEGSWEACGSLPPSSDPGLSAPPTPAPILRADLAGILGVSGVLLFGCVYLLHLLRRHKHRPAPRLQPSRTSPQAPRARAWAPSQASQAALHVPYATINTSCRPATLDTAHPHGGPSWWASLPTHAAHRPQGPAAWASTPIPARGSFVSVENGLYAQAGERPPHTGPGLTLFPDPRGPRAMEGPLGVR

[4] = biological target: T3, human PVRIG expressed on cells; assay: cell-based or functional assay; remark: listed apart in the source
[5] = biological target: T3, human PVRIG expressed on cells; assay: cell-based or functional assay; remark: listed apart in the source
[6] = biological target: T4, his-tagged human PVRIG (h-PVRIG-his) recombinant protein (human, UniProt Q6DKI7 41-171, limits assumed); assay: BLI (Fortebio), antibody on Protein A sensor, his-tagged human PVRIG as analyte
T4 construct: Acrobiosystems; also called Human PVRIG-his; human PVRIG recombinant protein; not shown: his tag
T4 sequence (looked up): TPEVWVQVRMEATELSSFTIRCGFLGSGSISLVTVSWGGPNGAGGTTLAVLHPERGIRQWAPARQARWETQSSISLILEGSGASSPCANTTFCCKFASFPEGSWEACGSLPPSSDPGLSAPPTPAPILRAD
Procedure: A Protein A biosensor (Fortebio, #18-5010) was immersed in 200 μL of KB buffer (PBS, pH 7.4, 0.02% tween-20, 0.10% BSA) for 60 s as a wetting treatment. Then an anti-PVRIG antibody was diluted to 10 μg/mL with KB buffer, and the sensor was immersed in 200 μL of the solution until the reading was 1.2 nm. The sensor was immersed in KB buffer for 100 s to remove excess antibody. […] The sensor was placed in the solution for 300 seconds of binding and then in KB buffer for 600 seconds of dissociation. Fitting was performed using a dynamic 1:1 binding mode.

[7] = biological target: T5, human PD-1 expressed on cells (human, UniProt Q15116 25-288); assay: cell-based or functional assay
[8] = biological target: T5, human PD-1 expressed on cells; assay: cell-based or functional assay; remark: listed apart in the source
[9] = biological target: T4, his-tagged human PVRIG (h-PVRIG-his) …; assay: ELISA, plate coated with PVRIG protein (his tag)
Procedure: ELISA assays were performed. TIGIT or PVRIG protein (his tag, Acrobiosystems, PVG-H52H4) was dissolved in PBS to 1 μg/mL, and the solution was added to a 96-well plate at 100 μL/well. The plate was coated with the antigen overnight at 4° C. The plate was washed with PBST solution three times. PBST/1% BSA solution was added, and the plate was incubated at 37° C. for 1 h for blocking. After three washes with PBST solution, different concentrations of the trispecific antibodies (diluted with PBST/1% BSA solution) were added, and the plate was incubated at 37° C. for 1.5 h. The plate was washed with PBST solution three times. […] After three washes with PBST solution, TMB solution was added at 100 μL/well. After 5 min of reaction at room temperature, 50 μL of stop solution was added. OD450 values were measured using a microplate reader, and EC₅₀ was calculated.

T5 sequence (Q15116 25-288 limits assumed): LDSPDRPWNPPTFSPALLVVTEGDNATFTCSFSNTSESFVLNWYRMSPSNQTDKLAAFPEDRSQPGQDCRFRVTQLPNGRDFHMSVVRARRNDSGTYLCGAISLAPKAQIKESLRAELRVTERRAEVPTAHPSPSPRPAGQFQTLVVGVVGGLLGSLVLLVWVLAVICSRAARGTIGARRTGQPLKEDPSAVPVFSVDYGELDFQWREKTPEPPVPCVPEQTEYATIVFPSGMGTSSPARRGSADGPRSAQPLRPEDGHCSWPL

B1: 1708-151-3 (bispecific antibody, human IgG4 S228P, kappa)
heavy: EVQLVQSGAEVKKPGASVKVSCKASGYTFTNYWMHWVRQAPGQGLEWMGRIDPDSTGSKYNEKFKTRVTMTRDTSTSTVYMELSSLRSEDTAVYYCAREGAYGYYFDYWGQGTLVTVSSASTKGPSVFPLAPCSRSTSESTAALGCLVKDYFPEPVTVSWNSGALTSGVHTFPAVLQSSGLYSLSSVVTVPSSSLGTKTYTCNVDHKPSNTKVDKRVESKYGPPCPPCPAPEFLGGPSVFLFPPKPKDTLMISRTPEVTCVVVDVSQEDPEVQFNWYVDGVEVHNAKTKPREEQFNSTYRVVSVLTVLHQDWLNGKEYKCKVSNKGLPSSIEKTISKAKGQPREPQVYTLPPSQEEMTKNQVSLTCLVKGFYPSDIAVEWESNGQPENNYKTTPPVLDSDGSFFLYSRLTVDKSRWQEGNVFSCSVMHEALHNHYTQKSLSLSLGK
light: HVQLVESGGGSVQAGGSLRLSCVASASGFTYRPYCMAWFRQAPGKEREAVAGIDIFGGTTYADSVKGRFTASRDNAGFSLFLQMNDLKPEDTAMYYCAAGDSPDGRCPPLGQGLNYWGQGTQVTVSSGGGGSGGGGSDIQMTQSPSSLSASVGDRVTITCRASENIYSYLAWYQQKPGKSPKLLIYNARTLAEGVPSRFSGSGSGTDFTLTISSLQPEDFATYYCQYHSGSPLPFGGGTKVEIKRTVAAPSVFIFPPSDEQLKSGTASVVCLLNNFYPREAKVQWKVDNALQSGNSQESVTEQDSKDSTYSLSSTLTLSKADYEKHKVYACEVTHQGLSSPVTKSFNRGEC
notes: Anti-PVRIG/TIGIT
binding result [1]: binds | binding result [2]: binds

B2: 1708-151-4 (bispecific antibody, human IgG4 S228P, kappa)
heavy: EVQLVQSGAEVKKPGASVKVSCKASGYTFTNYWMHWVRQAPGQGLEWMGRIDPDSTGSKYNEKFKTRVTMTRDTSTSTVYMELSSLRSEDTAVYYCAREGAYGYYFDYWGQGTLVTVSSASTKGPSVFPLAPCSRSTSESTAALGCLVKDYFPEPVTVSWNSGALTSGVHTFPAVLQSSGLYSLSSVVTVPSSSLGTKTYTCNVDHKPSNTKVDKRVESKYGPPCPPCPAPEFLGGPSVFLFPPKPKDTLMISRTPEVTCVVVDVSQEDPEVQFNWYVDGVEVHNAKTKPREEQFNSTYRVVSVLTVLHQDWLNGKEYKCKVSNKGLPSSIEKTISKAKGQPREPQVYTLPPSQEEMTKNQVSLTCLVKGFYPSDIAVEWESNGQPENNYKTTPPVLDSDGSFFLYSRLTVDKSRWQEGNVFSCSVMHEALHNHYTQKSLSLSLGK
light: DIQMTQSPSSLSASVGDRVTITCRASENIYSYLAWYQQKPGKSPKLLIYNARTLAEGVPSRFSGSGSGTDFTLTISSLQPEDFATYYCQYHSGSPLPFGGGTKVEIKRTVAAPSVFIFPPSDEQLKSGTASVVCLLNNFYPREAKVQWKVDNALQSGNSQESVTEQDSKDSTYSLSSTLTLSKADYEKHKVYACEVTHQGLSSPVTKSFNRGECGGGGSGGGGSHVQLVESGGGSVQAGGSLRLSCVASASGFTYRPYCMAWFRQAPGKEREAVAGIDIFGGTTYADSVKGRFTASRDNAGFSLFLQMNDLKPEDTAMYYCAAGDSPDGRCPPLGQGLNYWGQGTQVTVSS
notes: Anti-PVRIG/TIGIT
binding result [1]: binds | binding result [2]: binds

B3: Tab5 (antibody, human IgG4 S228P, kappa, F234A L235A, V domains shown)
VH: EVQLVESGGGVVKPGGSLRLSCAASGFTFGTSSMNWVRQAPGKGLEWVAVISFDGTEIHYADSVKGRFTISRDNSKSTVFLQMNSLRPDDTALYYCAKGSGNIYFYSGMDVWGQGTTVTVSS
VL: DIQMTQSPSTLSASVGDRVTITCRAGQSISGWLAWFQQKPGKAPNLLIYETSTLESGVPSRFSGSGSGTEYTLTISSLQPDDFATYYCQQYYSYPLTFGQGTKVEIKR
notes: Anti-PVRIG positive control, IgG4 S228P/F234A/L235A/K447A; also called positive antibody Tab5; CPA.7.021 variable regions on human IgG4/kappa
PVRIG reporter gene cell activity EC50 [3]: 0.74 nM | IFNγ, mixed lymphocyte reaction, 4 nM antibody [4]: 912 pg/mL | IFNγ, mixed lymphocyte reaction, 20 nM antibody [4]: 1420 pg/mL | IFNγ, mixed lymphocyte reaction, 100 nM antibody [4]: 2350 pg/mL | PVRIG reporter gene cell activity EC50 [5]: 1.38 nM | kon [6]: 737000 M⁻¹ s⁻¹

B4: A17h1-1708-151H7-A (trispecific antibody, human IgG4 S228P, kappa)
heavy: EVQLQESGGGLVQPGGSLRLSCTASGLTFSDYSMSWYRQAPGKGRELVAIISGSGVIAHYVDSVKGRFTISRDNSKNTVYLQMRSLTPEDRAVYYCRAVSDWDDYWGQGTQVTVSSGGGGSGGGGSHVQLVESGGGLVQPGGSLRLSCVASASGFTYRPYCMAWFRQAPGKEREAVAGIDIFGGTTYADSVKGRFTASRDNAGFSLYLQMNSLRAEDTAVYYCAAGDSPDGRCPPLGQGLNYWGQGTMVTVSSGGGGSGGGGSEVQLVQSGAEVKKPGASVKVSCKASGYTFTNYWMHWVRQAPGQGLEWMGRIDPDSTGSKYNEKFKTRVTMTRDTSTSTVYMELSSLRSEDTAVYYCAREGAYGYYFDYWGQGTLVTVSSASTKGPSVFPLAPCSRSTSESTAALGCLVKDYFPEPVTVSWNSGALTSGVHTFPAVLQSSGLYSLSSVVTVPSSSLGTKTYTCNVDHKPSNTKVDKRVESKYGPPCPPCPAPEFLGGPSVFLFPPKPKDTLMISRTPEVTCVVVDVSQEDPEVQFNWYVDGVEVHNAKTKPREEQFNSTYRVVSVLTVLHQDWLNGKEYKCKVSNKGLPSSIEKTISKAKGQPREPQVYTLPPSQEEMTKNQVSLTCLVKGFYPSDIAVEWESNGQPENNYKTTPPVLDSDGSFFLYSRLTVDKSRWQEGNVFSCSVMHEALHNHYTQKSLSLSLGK
light: DIQMTQSPSSLSASVGDRVTITCRASENIYSYLAWYQQKPGKSPKLLIYNARTLAEGVPSRFSGSGSGTDFTLTISSLQPEDFATYYCQYHSGSPLPFGGGTKVEIKRTVAAPSVFIFPPSDEQLKSGTASVVCLLNNFYPREAKVQWKVDNALQSGNSQESVTEQDSKDSTYSLSSTLTLSKADYEKHKVYACEVTHQGLSSPVTKSFNRGEC
DC:T MLR result, 0.1 nM antibody (unit not given) [7]: 91.3 | DC:T MLR result, 1 nM antibody (unit not given) [7]: 121 | DC:T MLR result, 10 nM antibody (unit not given) [7]: 147 | DC:T MLR result, 100 nM antibody (unit not given) [7]: 155 | IC50 (read off the curve) [8]: ~0.9 nM | EC50 [9]: 0.0952 nM

B5: 1708-151-2 (bispecific antibody, human IgG4 S228P, kappa)
heavy: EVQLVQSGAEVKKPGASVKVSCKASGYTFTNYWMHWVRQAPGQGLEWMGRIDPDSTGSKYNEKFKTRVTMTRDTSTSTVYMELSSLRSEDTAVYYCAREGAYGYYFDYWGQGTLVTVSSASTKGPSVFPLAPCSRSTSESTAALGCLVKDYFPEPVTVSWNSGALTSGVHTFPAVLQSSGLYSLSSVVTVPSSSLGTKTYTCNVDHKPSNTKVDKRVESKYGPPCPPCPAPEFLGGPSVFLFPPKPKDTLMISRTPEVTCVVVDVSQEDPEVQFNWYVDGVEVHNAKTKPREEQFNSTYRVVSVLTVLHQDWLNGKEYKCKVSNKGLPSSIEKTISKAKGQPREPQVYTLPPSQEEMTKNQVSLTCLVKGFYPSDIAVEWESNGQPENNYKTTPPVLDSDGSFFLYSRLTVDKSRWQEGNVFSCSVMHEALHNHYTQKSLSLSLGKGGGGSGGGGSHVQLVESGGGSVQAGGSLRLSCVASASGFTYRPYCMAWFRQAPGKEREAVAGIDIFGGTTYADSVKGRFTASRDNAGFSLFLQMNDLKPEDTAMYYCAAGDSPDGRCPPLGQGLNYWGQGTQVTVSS
light: DIQMTQSPSSLSASVGDRVTITCRASENIYSYLAWYQQKPGKSPKLLIYNARTLAEGVPSRFSGSGSGTDFTLTISSLQPEDFATYYCQYHSGSPLPFGGGTKVEIKRTVAAPSVFIFPPSDEQLKSGTASVVCLLNNFYPREAKVQWKVDNALQSGNSQESVTEQDSKDSTYSLSSTLTLSKADYEKHKVYACEVTHQGLSSPVTKSFNRGEC
notes: Anti-PVRIG/TIGIT
binding result [1]: binds | binding result [2]: binds

B6: 1708-151-1 (bispecific antibody, human IgG4 S228P, kappa)
heavy: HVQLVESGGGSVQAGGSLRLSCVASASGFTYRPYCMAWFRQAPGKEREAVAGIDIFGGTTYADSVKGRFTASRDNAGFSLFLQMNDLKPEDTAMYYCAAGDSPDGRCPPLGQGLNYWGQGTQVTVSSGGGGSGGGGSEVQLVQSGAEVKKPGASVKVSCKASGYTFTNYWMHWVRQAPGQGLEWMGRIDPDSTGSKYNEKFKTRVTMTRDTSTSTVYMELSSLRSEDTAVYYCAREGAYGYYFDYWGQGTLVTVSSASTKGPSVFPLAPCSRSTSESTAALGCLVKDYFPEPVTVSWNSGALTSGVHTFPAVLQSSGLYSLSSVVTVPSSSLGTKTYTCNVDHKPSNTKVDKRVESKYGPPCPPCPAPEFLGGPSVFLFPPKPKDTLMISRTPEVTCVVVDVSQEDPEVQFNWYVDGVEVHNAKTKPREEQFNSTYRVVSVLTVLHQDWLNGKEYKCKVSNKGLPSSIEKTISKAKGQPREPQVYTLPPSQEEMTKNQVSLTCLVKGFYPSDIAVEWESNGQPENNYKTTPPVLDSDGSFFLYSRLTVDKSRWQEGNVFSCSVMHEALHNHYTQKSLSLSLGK
light: DIQMTQSPSSLSASVGDRVTITCRASENIYSYLAWYQQKPGKSPKLLIYNARTLAEGVPSRFSGSGSGTDFTLTISSLQPEDFATYYCQYHSGSPLPFGGGTKVEIKRTVAAPSVFIFPPSDEQLKSGTASVVCLLNNFYPREAKVQWKVDNALQSGNSQESVTEQDSKDSTYSLSSTLTLSKADYEKHKVYACEVTHQGLSSPVTKSFNRGEC
notes: Anti-PVRIG/TIGIT
binding result [1]: binds | binding result [2]: binds

B7: A17h1-1708-151H7-D (trispecific antibody, human IgG4 S228P, kappa)
heavy: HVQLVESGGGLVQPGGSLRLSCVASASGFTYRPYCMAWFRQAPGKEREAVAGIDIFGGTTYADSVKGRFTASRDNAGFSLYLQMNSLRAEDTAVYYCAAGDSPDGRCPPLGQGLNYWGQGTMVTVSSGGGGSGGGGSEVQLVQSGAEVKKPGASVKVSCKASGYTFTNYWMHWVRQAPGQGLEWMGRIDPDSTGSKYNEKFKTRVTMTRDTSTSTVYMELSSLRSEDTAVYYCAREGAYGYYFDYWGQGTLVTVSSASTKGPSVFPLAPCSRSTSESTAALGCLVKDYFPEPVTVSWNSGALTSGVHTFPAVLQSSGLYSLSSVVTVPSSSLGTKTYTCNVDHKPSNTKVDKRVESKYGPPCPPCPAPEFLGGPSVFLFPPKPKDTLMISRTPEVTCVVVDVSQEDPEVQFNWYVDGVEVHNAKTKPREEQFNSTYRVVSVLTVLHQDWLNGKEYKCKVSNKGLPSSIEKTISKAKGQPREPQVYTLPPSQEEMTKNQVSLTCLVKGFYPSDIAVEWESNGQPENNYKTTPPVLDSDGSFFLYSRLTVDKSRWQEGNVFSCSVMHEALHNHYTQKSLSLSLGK
light: DIQMTQSPSSLSASVGDRVTITCRASENIYSYLAWYQQKPGKSPKLLIYNARTLAEGVPSRFSGSGSGTDFTLTISSLQPEDFATYYCQYHSGSPLPFGGGTKVEIKRTVAAPSVFIFPPSDEQLKSGTASVVCLLNNFYPREAKVQWKVDNALQSGNSQESVTEQDSKDSTYSLSSTLTLSKADYEKHKVYACEVTHQGLSSPVTKSFNRGECGGGGSGGGGSEVQLQESGGGLVQPGGSLRLSCTASGLTFSDYSMSWYRQAPGKGRELVAIISGSGVIAHYVDSVKGRFTISRDNSKNTVYLQMRSLTPEDRAVYYCRAVSDWDDYWGQGTQVTVSS
DC:T MLR result, 0.1 nM antibody (unit not given) [7]: 84.8 | DC:T MLR result, 1 nM antibody (unit not given) [7]: 97.3 | DC:T MLR result, 10 nM antibody (unit not given) [7]: 137 | DC:T MLR result, 100 nM antibody (unit not given) [7]: 149 | IC50 (read off the curve) [8]: ~1 nM | EC50 [9]: 0.158 nM
